Test results taken from paper PMC6451128, “Structural and functional analysis of the nucleotide and DNA binding activities of the human PIF1 helicase”.
Numbering of substitutions follows the chain as printed.

Key:
hPIF1HD wild-type = target: T1, hPIF1HD wild-type (human, UniProt Q9H611 206-620); assay: EMSA; no nucleotide; apparent; 20 mM HEPES-NaOH pH 7.5 (Results say pH 7.2), 135 mM NaCl, 5% glycerol, 1 mM DTT, 1 mg/ml BSA, 20 min at 20 C; 0.4 nM T(35); G4 assay: 0.1 nM G4 DNA, 2% PEG 8000 instead of glycerol, 5 uM T(35) competitor; conditions: protein: recombinant; tags: His tag removed by thrombin, GSRM left at N-term; label: 5' 32P (PNK)
T1 sequence: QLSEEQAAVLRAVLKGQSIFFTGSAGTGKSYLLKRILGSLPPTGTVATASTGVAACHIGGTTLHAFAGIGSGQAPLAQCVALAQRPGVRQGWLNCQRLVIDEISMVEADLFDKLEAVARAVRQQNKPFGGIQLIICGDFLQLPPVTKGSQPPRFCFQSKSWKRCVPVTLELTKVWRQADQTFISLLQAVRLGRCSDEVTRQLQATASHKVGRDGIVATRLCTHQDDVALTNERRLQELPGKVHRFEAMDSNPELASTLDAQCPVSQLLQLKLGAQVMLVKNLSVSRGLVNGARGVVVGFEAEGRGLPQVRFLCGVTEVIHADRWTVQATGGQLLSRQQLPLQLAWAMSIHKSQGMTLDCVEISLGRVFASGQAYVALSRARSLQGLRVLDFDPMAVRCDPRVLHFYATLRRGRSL

hPIF1HD P291A = target: T2, hPIF1HD P291A (human, UniProt Q9H611 206-620, P291A); assay: as above; conditions: protein: recombinant; tags: His tag removed, GSRM left; label: 5' 32P (PNK)
T2 sequence: T1 sequence with P86A

hPIF1HD K556A = target: T3, hPIF1HD K556A (human, UniProt Q9H611 206-620, K556A); assay: EMSA; no nucleotide; greatest defect; 20 mM HEPES-NaOH pH 7.5 (Results say pH 7.2), 135 mM NaCl, 5% glycerol, 1 mM DTT, 1 mg/ml BSA, 20 min at 20 C; 0.4 nM T(35); G4 assay: 0.1 nM G4 DNA, 2% PEG 8000 instead of glycerol, 5 uM T(35) competitor; conditions: protein: recombinant; tags: His tag removed, GSRM left; label: 5' 32P (PNK)
T3 sequence: T1 sequence with K351A

hPIF1HD F573A = target: T4, hPIF1HD F573A (human, UniProt Q9H611 206-620, F573A); assay: EMSA; no nucleotide; 20 mM HEPES-NaOH pH 7.5 (Results say pH 7.2), 135 mM NaCl, 5% glycerol, 1 mM DTT, 1 mg/ml BSA, 20 min at 20 C; 0.4 nM T(35); G4 assay: 0.1 nM G4 DNA, 2% PEG 8000 instead of glycerol, 5 uM T(35) competitor; conditions: protein: recombinant; tags: His tag removed, GSRM left; label: 5' 32P (PNK)
T4 sequence: T1 sequence with F368A

TTTTTTTTTTTTTTTTTTTTTTTTTTTTTTTTTTT (ssDNA) [poly-T(35)]
Kd (hPIF1HD wild-type): 2.3 ± 0.3 nM
Kd (hPIF1HD P291A): 1.9 ± 0.6 nM
binding signal (hPIF1HD K556A): > 50 fold decrease in affinity vs WT
binding signal (hPIF1HD F573A): > 50 fold decrease in affinity vs WT
